Data taken from patent US20240076370A1 (Memorial Sloan Kettering, published 2024).

Target: T1, human G-protein coupled receptor family C group 5 member D (GPRC5D) (human, UniProt Q9NZD1 1-345)
T1 construct: Overexpressed on 3T3 cells in the FACS assays; also called human GPRC5D; 3T3-GPRC5D
Assay: FACS, scFv phage clones on 3T3 cells overexpressing GPRC5D

T1 sequence (Q9NZD1 whole entry): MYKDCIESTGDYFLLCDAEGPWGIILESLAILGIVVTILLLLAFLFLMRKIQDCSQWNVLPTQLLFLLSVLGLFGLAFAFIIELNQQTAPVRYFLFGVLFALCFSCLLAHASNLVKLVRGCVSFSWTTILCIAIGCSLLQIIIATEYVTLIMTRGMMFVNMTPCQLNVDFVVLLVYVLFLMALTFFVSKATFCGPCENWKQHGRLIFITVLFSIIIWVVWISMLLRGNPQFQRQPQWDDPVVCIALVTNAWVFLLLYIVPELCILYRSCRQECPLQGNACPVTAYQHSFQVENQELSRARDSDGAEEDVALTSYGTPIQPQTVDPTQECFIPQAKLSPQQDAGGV

Binder	binding result
ET150-028 scFv (scFv, also called ET150-178 scFv) scFv: AELQPVLTQPPSASGTPGQRVTISCSGSSSNIGGNTVSWYQQVPGTAPRLLIFRNNQRPPGVPDRFSGSKSGTSASLAISGLRSEDEADYYCAAWDASRQGVFGGGTKLTVLGSRGGGGSGGGGSGGGGSLEMAQVQLVQSGAEVKKPGSSVKVSCKASGGTFRSYAITWVRQAPGQGLEWMGRIIPMLDITNYAQKFQGRVTITADKSTSTAYMELSSLRSEDTAVYYCARTYSRSPFHMEDFWGQGTLVTVSS	binds
ET150-163 scFv (scFv, also called ET150-13 scFv) scFv: QSVVTQPPSVSGAPGQRVTISCTGSSSNIGAGYDVHWYQQLPGTAPKLLIYGNSNRPSGVPDRFSGSKSGTSASLAITGLQAEDEADYYCQSYDSSLSGSYVFGTGTKLTVLGSRGGGGSGGGGSGGGGSLEMAEVQLVETGGNLVQPGASLRLSCAASGFSFSGTAMHWVRQAPGKGLEWVSTISSTGRSTYYRDSVKGRFTISRDNSKNTLYLQMNSLRGEDTAVYYCARVSFDYWGQGTLVTVSS	binds
ET150-153 scFv (scFv, also called ET150-3 scFv) scFv: QSVLTQPPSVSAAPGQKVTIPCSGSRSNVGNYYVSWYQQLPGTAPKLLIYDNNKRPSGIPDRFSGSKSGTSATLGITGLQTGDEADYFCGTWDGSLSAHVFGTGTKVTVLGSRGGGGSGGGGSGGGGSLEMAQVQLVQSGSELKKPGASVRVSCTASGYTFTSYYMHWVRQAPGQGLEWMGVINPNAGSTRYAQKFQGRVTMSTDTSTSTAYMDLSSLRSEDTAVYYCARGMYRSLLFYDPWGQGTLVTVSS	binds
ET150-173 scFv (scFv, also called ET150-23 scFv) scFv: QSALTQPASVSGSPGQSITISCTGTSSDVGGYNYVSWYQQSPGKAPRLMIYGVSKRPSGVPDRFSGSKSGNTASLTVSGLQAEDEADYYCSSYAGVNNLMFGGGTKLTVLGSRGGGGSGGGGSGGGGSLEMAQVQLVQSGAEVKKPGASVKVSCKASGYTFTSYYMHWVRQAPGQGLEWMGIINPSGGSTSYAQKFQGRVTMTRDTSTSTVYMELSSLRSEDTAVYYCARDVISGFDSWGQGTLVTVSS	binds
ET150-162 scFv (scFv, also called ET150-12 scFv) scFv: QSALTQPPSASGSPGQSVTISCTGTSRDAGGYNYFSWYQQHPGKAPKLLIYEVTKRPSGVPDRFSGSKSGKTASLTVSGLQADDEAVYYCSSYGGSNNFRVFGGGTKLTVLGSRGGGGSGGGGSGGGGSLEMAEVQLVESGGGVVRPGGSLRLSCAASGFTFGDYGMSWVRQAPGKGLEWVSGINWNGGSTGYADSVKGRFTISRDNAKNSLYLQMNSLRAEDTAVYYCARSKQDYWGQGTLVTVSS	binds
ET150-161 scFv (scFv, also called ET150-11 scFv) scFv: SYVLTQPPSASGTPGQRVTISCSGSSSNIGSNTVNWYQQLPGTAPKLLIYRNNQRPSGVPDRFSGSKSGTSASLAISGLRSEDEADYYCAAWDDSLSGLFGTGTKVTVLGSRGGGGSGGGGSGGGGSLEMAQMQLVQSGAEVKKPGASVKVSCKASEYTFTRHILHWVRQAPGQSLEWMGWINPGNGNTKYSQKFQVRVTFTRDTSASTVYMELSSLRSEDTAVYYCARLPDQWGQGTLVTVSS	binds
ET150-166 scFv (scFv, also called ET150-16 scFv) scFv: NFMLTQPHSVSESPGKTVSISCTRTSGAIAGAYVQWFQQRPGSAPTTVIYDDNKRPSGVPDRFSGSIDKSSNSASLTISGLKTEDEADYYCQSYDYDSSNVLFGGGTKLTVLGSRGGGGSGGGGSGGGGSLEMAEVQLVESGGGLVQPGGSLRLSCAASGFTFSNYAMSWVRQAPGKGLEWVSAISGSGNTYYADSVKGRFTISRDNSKNTLYLQMNSLRAEDTAVYYCARGSVRYTDIWGQGTLVTVSS	binds
ET150-160 scFv (scFv, also called ET150-10 scFv) scFv: QSALTQPASVSGSPGQSITISCTGTSSDVGGYNYVSWYQQHPGKAPKLMIYDVSKRPSGVSNRFSGSKSGNTASLTISGLQAEDEADYYCSSYTRSSTEVFGGGTKLTVLGSRGGGGSGGGGSGGGGSLEMAEVQLVQSGAEVKKPGASVKVSCKASGYTFTSYYMHWVRQAPGQGLEWMGIINPSGGSTSYAQKFQGRVTMTRDTSTSTVYMELSSLRSEDTAVYYCARGGSKKWSGEKWRRENFDYWGQGTLVTVSS	binds
ET150-169 scFv (scFv, also called ET150-19 scFv) scFv: QSVVTQPPSVSAAPGQKVTISCSGSSSNIGNNYVSWYQQLPGTAPKLLIYDNNKRPSGIPDRFSGSKSGTSATLGITGLQTGDEADYYCGTWDSSLSGVVFGGGTKLTVLGSRGGGGSGGGGSGGGGSLEMAQVQLVQSGGEVKKPGASVKVSCKASGFTFNTYGISWVRQAPGQGLEWMGWISANNGHTKSAQRFQDRVAMATDTSTSTAYMELRSLKFDDTAVYYCARGGYHHQMQRYYKATSVYSDYWGQGTLVTVSS	binds
ET150-164 scFv (scFv, also called ET150-14 scFv) scFv: QSALTQPPSASGSPGQSVTISCTGTSSDVGGYNYVSWYQQHPGKAPKLMIYEVSKRPSGVPDRFSGSKSGNTASLTVSGLQAEDEADYYCSSYAGSNTLVFGGGTKLTVLGSRGGGGSGGGGSGGGGSLEMAQMQLVQSGAEVKKPGASVKVSCKASGYTFTSYYMHWVRQAPGQGLEWMGIINPSGGSTSYAQKFQGRVTMTRDTSTSTVYMELSSLRSEDTAVYYCARAGMGMDTWGQGTLVTVSS	binds
ET150-172 scFv (scFv, also called ET150-22 scFv) scFv: QSALTQPPSASGSPGQSVTISCTGTSSDVGGYNYVSWYQQHPGKAPKLMIYEVSKRPSGVPDRFSGSKSGNTASLTVSGLQAEDEADYYCSSYAGSNTLVFGGGTKLTVLGSRGGGGSGGGGSGGGGSLEMAQMQLVQSGAEVKKPGASVKVSCKASGYTFTSYYMHWVRQAPGQGLEWMGIINPSGGSSSYAQKFQGRVTMTRDTSTSTVYMELSSLRSEDTAVYYCARAGMGMDTWGQGTLVTVSS	binds
ET150-026 scFv (scFv, also called ET150-176 scFv) scFv: AELSYELTQPPSASGTPGQRVSISCSGSSSNIGSNTVNWYQQFPGTAPKLLIHSNNQRPSGVPDRFSGSKSGTSASLAISGPQSEDEADYYCAAWDDSVNGYVFGTGTKVTVLGSRGGGGSGGGGSGGGGSLEMAQLQLQESGGGSVQPGGSLRLSCAASGFTFSNYAMSWVRQAPGKGLEWVSAITNSGRSTYYADSVKGRFTISRDNSKNTLSLQMSSLRAEDTAVYYCARVTHRRYGSTFDSRGQGTLVTVSS	binds
ET150-165 scFv (scFv, also called ET150-15 scFv) scFv: QSALTQPPSASGSPGQSVTISCTGTSSDIGGYNYVSWYQQHPGKAPKLMIYEVNKRPSGVPDRFSGSKSGNTASLTVSGLQAEDEADYYCASFAGRKTLVFGGGTKLTVLGSRGGGGSGGGGSGGGGSLEMAQVQLVQSGAEVKKPGASVKVSCRASGYTFTAYSLHWVRQAPGQGLEWMGWINPSSGGAVYAQKFQGRVTMTRDTSISTAYMELSGLRSDDTAVYYCARNVGGQADDWGQGTLVTVSS	binds
ET150-167 scFv (scFv, also called ET150-17 scFv) scFv: QSALTQPPSASGSPGQSVTISCTGTSTDIGGYNYVSWYQHHPSKAPKLMIYEVNKRPSGVPDRFSGSKSGNTASLTVSGLQAEDEADYYCASFAGRKTLVFGGGTKLTVLGSRGGGGSGGGGSGGGGSLEMAQVQLVQSGAEVKKPGASVKVSCRASGYTFTAYSLHWVRQAPGQGLEWMGWINPSSGGAVYAQKFQGRVTMTRDTSISTAYMELSGLRSDDTAVYYCARNVGGHADDWGQGTLVTVSS	binds
